In patent US20120094935A1:

Legend:
[1] = target: N-terminally His-tagged form of human TNFα (residues 6-157, numbered as in PDB entry 1TNF), soluble TNFα trimer (human) (UniProt P01375); experiment: crystal structure, AREAIMOL with 1.4 Å probe
[2] = target: N-terminally His-tagged form of human TNFα (residues 6-157, numbered as in PDB entry 1TNF), soluble TNFα trimer (human) (UniProt P01375); experiment: crystal structure, SC program in CCP4

Chain of UniProt P01375 (P01375 other isoform, or with tags, fused parts or gaps limits assumed): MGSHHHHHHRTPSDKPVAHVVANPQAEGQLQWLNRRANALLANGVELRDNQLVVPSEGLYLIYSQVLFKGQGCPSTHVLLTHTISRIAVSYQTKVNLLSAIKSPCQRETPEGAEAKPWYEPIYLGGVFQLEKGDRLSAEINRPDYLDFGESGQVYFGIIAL

C-terminally His-tagged version of Yaba-like disease virus (YLDV) 2L lacking six C-terminal residues
buried surface area contributed by 2L [1]: 1030 Å^2 | total buried surface area at the 2L-TNFα interface [1]: 2060 Å^2 | shape complementarity index SC [2]: 0.72
